In US20250171534A1 (D2M BIOTHERAPEUTICS, published 2025):

Tests used:
[1] = molecular target: T1, LILRB1-ECD-HIS (SinoBiological Cat #: 16014-H02H) (human, UniProt Q8NHL6 24-461); test: BLI (Gator), RB1-ECD-his
T1 construct: Bought protein; also called monomeric antigen LILRB1-ECD-HIS; not shown: His tag

[2] = molecular target: T2, cynomolgus (monkey) LILRB2 expressed on CHO cells (cynomolgus monkey); test: flow cytometry on CHO-cynoLILRB2 cells
T2 construct: whole, on cells; Putative orthologue; also called cynoLILRB2; cynoRB2

[3] = molecular target: T3, LILRB2-ECD-HIS (SinoBiological Cat #: 14132-H02H) (human, UniProt Q8N423 22-460); test: SPR (Carterra), LILRB2-ECD-his
T3 construct: Bought protein; also called monomeric antigen LILRB2-ECD-HIS; not shown: His tag

[4] = molecular target: T4, human LILRB1 expressed on cells (human, UniProt Q8NHL6 24-650); test: flow cytometry, CHO-LILRB1 cells
T4 construct: In 293T cells it was expressed from pCMV3-LILRB1-GFP; also called CHO-LILRB1; Jurkat-LILRB1

[5] = molecular target: T4, human LILRB1 expressed on cells; test: flow cytometry, CHO-LILRB1 cells; remark: listed apart in the source
[6] = molecular target: T5, human LILRB2 expressed on cells (human, UniProt Q8N423 22-597); test: flow cytometry, Jurkat-LILRB2 cells
T5 construct: In 293T cells it was expressed from pCMV3-LILRB2-GFP; also called CHO-LILRB2; Jurkat-LILRB2

[7] = molecular target: T4, human LILRB1 expressed on cells; test: flow cytometry, Jurkat-LILRB1 cells
[8] = molecular target: T5, human LILRB2 expressed on cells; test: flow cytometry, Jurkat-LILRB2 cells; remark: listed apart in the source
[9] = molecular target: T3, LILRB2-ECD-HIS (SinoBiological Cat #: …); test: BLI (Gator), trace labelled 2 µg/mL; unit taken from the Average KD line
[10] = molecular target: T3, LILRB2-ECD-HIS (SinoBiological Cat #: …); test: BLI (Gator), trace labelled 5 µg/mL; unit taken from the Average KD line
[11] = molecular target: T3, LILRB2-ECD-HIS (SinoBiological Cat #: …); test: BLI (Gator), trace labelled 0.5 µg/mL; unit taken from the Average KD line
[12] = molecular target: T3, LILRB2-ECD-HIS (SinoBiological Cat #: …); test: BLI (Gator Prime), antibody on anti-hIgG Fc probe, monomeric LILRB2-ECD-HIS in solution
[13] = molecular target: T6, LILRA1 expressed on cells (human, UniProt O75019 17-489); test: flow cytometry on CHO-LILRA1 cells, non-linear fit of the curves of FIG. 26E
T6 construct: whole, on cells; GFP-tagged; also called human LILRA1; CHO-LILRA1

[14] = molecular target: T7, LILRA6 expressed on cells (human, UniProt Q6PI73 24-481); test: flow cytometry on CHO-LILRA6 cells, non-linear fit of the curves of FIG. 26F
T7 construct: whole, on cells; GFP-tagged; also called human LILRA6; CHO-LILRA6

[15] = molecular target: T5, human LILRB2 expressed on cells; test: flow cytometry on CHO-LILRB2 cells, non-linear fit of the curves of FIG. 26B
[16] = molecular target: T8, LILRB3 expressed on cells (human, UniProt O75022 24-631); test: flow cytometry on CHO-LILRB3 cells, non-linear fit of the curves of FIG. 26C
T8 construct: whole, on cells; Expressed with a GFP tag from the bought plasmid; also called human LILRB3; CHO-LILRB3

[17] = molecular target: T4, human LILRB1 expressed on cells; test: flow cytometry, Jurkat-LILRB1 cells; blocked ligand: APC HLA-G trimer tetramer
[18] = molecular target: T5, human LILRB2 expressed on cells; test: flow cytometry, Jurkat-LILRB2 cells; blocked ligand: APC HLA-G monomer tetramer
[19] = molecular target: T9, LILRA2 expressed on 293T cells (UniProt Q8N149 24-483, limits assumed); test: flow cytometry on 293T cells transiently expressing LILRA2, APC anti-human Fc; gMFI as fold to IgG staining
T9 construct: whole, on cells; GFP-tagged, transient

[20] = molecular target: T10, LILRA3 expressed on 293T cells (UniProt Q8N6C8 24-439, limits assumed); test: flow cytometry on 293T cells transiently expressing LILRA3, APC anti-human Fc; gMFI as fold to IgG staining
T10 construct: whole, on cells; GFP-tagged, transient

[21] = molecular target: T11, LILRA5 expressed on 293T cells (UniProt A6NI73 42-299, limits assumed); test: flow cytometry on 293T cells transiently expressing LILRA5, APC anti-human Fc; gMFI as fold to IgG staining
T11 construct: whole, on cells; GFP-tagged, transient

[22] = molecular target: T12, LILRA4 expressed on 293T cells (UniProt P59901 24-499, limits assumed); test: flow cytometry on 293T cells transiently expressing LILRA4, antibody 5 µg/mL, APC anti-human Fc; gMFI as fold to IgG staining
T12 construct: whole, on cells; GFP-tagged, transient
T12 sequence (P59901 24-499 limits assumed): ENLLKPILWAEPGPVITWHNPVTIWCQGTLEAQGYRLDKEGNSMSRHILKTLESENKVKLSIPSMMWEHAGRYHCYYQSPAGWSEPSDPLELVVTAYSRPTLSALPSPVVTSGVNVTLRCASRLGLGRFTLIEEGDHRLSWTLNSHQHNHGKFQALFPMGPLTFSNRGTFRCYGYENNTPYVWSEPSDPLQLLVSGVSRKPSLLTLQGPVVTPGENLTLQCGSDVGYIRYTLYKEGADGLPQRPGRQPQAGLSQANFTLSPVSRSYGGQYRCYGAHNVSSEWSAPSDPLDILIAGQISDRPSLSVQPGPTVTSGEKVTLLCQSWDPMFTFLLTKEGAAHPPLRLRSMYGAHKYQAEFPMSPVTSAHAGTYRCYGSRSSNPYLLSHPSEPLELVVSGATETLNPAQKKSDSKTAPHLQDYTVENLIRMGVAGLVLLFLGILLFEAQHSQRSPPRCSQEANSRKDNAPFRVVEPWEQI

T5 sequence (Q8N423 other isoform, or with tags, fused parts or gaps limits assumed): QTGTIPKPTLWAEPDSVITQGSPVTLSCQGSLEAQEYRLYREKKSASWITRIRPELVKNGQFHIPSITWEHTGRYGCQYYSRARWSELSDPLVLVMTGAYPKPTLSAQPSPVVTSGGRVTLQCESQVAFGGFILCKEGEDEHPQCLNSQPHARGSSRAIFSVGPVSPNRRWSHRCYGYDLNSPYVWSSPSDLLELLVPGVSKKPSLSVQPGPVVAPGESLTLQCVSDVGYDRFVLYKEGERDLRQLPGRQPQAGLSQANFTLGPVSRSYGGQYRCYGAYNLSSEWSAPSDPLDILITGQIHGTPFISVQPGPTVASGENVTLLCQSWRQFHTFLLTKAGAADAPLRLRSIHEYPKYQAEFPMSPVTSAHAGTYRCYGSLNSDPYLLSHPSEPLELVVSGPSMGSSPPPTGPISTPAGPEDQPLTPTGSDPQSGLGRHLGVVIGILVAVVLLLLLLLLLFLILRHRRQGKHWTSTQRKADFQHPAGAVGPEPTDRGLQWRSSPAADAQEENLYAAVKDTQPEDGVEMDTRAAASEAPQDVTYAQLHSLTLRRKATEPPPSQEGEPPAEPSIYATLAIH
T4 sequence (Q8NHL6 other isoform, or with tags, fused parts or gaps limits assumed): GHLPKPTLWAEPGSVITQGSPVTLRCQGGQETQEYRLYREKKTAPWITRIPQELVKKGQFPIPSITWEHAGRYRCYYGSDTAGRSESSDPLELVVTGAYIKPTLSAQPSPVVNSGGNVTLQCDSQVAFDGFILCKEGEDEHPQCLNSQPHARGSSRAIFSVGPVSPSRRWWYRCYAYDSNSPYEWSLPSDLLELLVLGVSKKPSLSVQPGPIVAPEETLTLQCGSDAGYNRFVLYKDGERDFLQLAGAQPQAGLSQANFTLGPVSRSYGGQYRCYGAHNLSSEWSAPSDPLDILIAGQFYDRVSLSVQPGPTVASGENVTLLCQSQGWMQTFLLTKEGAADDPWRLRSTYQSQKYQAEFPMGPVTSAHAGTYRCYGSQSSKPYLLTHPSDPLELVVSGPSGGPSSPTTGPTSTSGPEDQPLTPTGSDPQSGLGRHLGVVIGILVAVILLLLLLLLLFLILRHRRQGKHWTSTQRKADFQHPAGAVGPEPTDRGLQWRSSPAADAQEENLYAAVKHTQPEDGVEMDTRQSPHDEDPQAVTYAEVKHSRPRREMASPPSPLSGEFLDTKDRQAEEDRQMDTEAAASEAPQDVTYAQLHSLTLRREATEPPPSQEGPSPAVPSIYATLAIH
T3 sequence (Q8N423 other isoform, or with tags, fused parts or gaps H02H H02H): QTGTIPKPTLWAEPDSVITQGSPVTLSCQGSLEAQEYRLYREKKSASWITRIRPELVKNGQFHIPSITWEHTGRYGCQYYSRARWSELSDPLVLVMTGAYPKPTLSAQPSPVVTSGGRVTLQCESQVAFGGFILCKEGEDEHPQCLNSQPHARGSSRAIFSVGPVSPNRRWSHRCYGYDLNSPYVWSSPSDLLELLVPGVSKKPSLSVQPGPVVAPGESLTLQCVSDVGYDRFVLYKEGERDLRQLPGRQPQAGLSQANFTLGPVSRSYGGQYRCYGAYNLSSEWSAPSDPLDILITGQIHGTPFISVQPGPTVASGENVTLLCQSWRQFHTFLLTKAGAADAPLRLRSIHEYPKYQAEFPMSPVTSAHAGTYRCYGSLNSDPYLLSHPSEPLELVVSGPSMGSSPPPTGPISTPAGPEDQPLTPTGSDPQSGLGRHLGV
T6 sequence (O75019 17-489): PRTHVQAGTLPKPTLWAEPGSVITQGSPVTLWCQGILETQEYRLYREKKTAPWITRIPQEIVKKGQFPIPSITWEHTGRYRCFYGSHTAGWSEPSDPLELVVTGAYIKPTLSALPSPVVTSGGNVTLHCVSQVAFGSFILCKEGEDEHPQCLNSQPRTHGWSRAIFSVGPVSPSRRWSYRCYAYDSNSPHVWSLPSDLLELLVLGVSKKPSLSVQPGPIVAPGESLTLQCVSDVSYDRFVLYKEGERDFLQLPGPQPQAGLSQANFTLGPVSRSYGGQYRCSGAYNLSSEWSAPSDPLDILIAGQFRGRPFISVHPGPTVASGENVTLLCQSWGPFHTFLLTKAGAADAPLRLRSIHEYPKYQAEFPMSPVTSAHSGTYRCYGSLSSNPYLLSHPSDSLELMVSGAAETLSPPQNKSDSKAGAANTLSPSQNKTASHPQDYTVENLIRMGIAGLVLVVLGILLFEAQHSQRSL
T11 sequence (A6NI73 42-299 limits assumed): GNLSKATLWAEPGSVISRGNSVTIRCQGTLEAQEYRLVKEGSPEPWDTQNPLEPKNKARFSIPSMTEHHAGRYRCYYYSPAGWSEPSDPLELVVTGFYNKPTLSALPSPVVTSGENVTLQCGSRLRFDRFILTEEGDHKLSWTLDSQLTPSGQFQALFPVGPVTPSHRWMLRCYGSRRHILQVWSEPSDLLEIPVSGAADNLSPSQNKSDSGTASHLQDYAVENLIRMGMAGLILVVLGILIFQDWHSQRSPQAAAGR
T7 sequence (Q6PI73 24-481): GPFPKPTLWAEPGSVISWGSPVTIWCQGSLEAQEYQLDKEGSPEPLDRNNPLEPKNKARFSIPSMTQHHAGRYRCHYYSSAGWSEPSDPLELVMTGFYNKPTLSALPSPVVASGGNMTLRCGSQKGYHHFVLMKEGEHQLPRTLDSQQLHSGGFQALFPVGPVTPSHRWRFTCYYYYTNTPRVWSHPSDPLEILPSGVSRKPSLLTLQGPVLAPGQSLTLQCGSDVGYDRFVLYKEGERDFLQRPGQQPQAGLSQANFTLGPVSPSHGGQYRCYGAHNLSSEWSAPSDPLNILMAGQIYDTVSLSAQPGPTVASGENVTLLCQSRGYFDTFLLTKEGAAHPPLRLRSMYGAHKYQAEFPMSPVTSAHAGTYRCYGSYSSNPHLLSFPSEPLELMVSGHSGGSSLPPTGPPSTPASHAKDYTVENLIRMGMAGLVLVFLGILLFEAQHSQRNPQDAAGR
T9 sequence (Q8N149 24-483 limits assumed): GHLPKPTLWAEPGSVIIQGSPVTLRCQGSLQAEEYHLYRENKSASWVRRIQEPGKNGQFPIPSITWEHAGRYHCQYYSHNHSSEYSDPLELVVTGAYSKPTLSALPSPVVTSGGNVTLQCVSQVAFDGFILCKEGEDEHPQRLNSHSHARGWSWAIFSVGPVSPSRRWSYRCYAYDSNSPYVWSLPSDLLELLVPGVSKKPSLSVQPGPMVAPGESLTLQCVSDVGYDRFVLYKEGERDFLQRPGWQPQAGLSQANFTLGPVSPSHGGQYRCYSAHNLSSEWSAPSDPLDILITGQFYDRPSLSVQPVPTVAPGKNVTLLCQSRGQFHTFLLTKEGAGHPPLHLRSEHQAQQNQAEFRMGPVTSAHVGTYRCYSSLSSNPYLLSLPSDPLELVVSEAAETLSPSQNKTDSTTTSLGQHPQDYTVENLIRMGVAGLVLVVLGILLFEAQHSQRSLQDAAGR
T10 sequence (Q8N6C8 24-439 limits assumed): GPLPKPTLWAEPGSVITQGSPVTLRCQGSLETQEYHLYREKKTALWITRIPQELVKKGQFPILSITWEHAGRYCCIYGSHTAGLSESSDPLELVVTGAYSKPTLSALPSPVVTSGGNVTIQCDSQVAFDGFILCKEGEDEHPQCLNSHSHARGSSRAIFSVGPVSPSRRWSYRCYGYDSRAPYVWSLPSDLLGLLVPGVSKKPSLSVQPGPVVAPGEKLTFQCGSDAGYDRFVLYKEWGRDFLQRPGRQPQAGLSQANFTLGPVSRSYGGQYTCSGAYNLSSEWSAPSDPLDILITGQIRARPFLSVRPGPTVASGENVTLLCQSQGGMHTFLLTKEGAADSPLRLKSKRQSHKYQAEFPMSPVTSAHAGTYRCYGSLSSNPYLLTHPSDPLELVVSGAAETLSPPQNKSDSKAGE
T1 sequence (Q8NHL6 other isoform, or with tags, fused parts or gaps H02H H02H): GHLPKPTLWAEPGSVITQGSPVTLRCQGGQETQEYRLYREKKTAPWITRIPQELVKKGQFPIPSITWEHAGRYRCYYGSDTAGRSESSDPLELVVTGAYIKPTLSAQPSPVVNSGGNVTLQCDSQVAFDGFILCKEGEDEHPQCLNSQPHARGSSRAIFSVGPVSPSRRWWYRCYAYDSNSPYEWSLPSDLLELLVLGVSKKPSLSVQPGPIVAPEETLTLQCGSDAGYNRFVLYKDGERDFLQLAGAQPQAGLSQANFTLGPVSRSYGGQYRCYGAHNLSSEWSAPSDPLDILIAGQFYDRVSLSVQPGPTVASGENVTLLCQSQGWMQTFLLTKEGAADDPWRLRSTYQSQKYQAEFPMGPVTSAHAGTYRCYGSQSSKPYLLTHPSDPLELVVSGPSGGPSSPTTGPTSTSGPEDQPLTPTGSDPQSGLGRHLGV

Kd [1]: 2.12 nM
EC50 [2]: 5.5 µg/mL
Kd [3]: 0.44 nM
koff [3]: 0.0002 s⁻¹
kon [3]: 456000 M⁻¹ s⁻¹
EC50 [4]: 0.326 µg/mL
EC50 [5]: 0.439 µg/mL
gMFI (max) [5]: 35700
EC50 (read off the curve) [6]: ~0.3 µg/mL
EC50 [7]: 0.754 µg/mL
EC50 [8]: 0.258 µg/mL
Kd [9]: 0.242 nM
Kd [10]: 0.351 nM
Kd [11]: 0.265 nM
Kd [12]: 0.286 nM
EC50 [13]: 0.474 µg/mL
MaxMFI [13]: 19500
EC50 [14]: 9.46 µg/mL
EC50 [15]: 0.128 µg/mL
MaxMFI [15]: 32600
EC50 [16]: 12.8 µg/mL
IC50 [17]: 0.191 µg/mL
IC50 [18]: 0.065 µg/mL
binding result [19]: no binding (tested: 5 µg/mL)
binding result [20]: no binding (tested: 5 µg/mL)
binding result [21]: no binding (tested: 5 µg/mL)
binding result [22]: binds
B1: D2M002-002 (antibody, V domains shown)
VH: EVQLQQSGPELVKPGASVKMSCKASGYTFTRYVMHWVKQKPGQGLEWIGYINPNNDGTKYNEKFKGKVTLTSDKSSSTAYMELSSLTSEDSAVYYCARGDLEILPYYDHARNAMDYWGQGTSVTVSS
VL: DVQMIQSPASLSASVGETVTITCRASENIYSYLAWYQQKQGKSPQLLVYNAKTLAEGVPSRFSGSGSGTQFSLKINSLQPEDFGSYYCQHFWSTPPTFGGGTKLEIK
notes: Hit from immunised mice; also called clone #2; anti-LILRB1/2 clone #2
